Substitutions are numbered along the chain they refer to. Numbers in names are those of the source.
Biological target: the molecule itself
Test: cross-linking

B1: Pseudomonas fluorescens esterase variant p2 (T3C) (enzyme)
chain: SCFVAKDGTQIYFKDWGSGKPVLFSHGWLLDADMWEYQMEYLSSRGYRTIAFDRRGFGRSDQPWTGNDYDTFADDIAQLIEHLDLKEVTLVGFSMGGGDVARYIARHGSARVAGLVLLGAVTPLFGQKPDYPQGVPLDVFARFKTELLKDRAQFISDFNAPFYGINKGQVVSQGVQTQTLQIALLASLKATVDCVTAFAETDFRPDMAKIDVPTLVIHGDGDQIVPFETTGKVAAELIKGAELKVYKDAPHGFAVTHAQQLNEDLLAFLKR
stoichiometry N: 3

B2: Pseudomonas fluorescens esterase variant p3 (Q174C) (enzyme)
chain: B1 chain with C2T, Q173C
stoichiometry N: 3

B3: Pseudomonas fluorescens esterase variant p4 (T3C and Q174C) (enzyme)
chain: B1 chain with Q173C
stoichiometry N: 3

Reference: publication PMC10857811 (Chem, 2024)
